In publication PMC2743916 (Structure (London, England : 1993), 2008):
Each block holds one binder with its values, some of them ahead of it.

Key:
[1] = biological target: T1, Spt4 (residues 1-99) (S. cerevisiae, UniProt P32914 1-99); experiment: crystal structure
T1 sequence (looked up): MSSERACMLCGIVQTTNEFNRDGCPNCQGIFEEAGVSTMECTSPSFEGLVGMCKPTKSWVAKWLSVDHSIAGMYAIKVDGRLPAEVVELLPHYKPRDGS

[2] = biological target: the molecule itself; experiment: crystal structure

- binding result [1]: binds
B1: Spt5NGN domain (residues 285-375) (domain or fragment, S. cerevisiae, UniProt P27692 285-375, looked up)
chain: ATIWGVRCRPGKEKELIRKLLKKKFNLDRAMGKKKLKILSIFQRDNYTGRIYIEAPKQSVIEKFCNGVPDIYISQKLLIPVQELPLLLKPN

B2: Spt4/Spt5NGN fusion protein (other, S. cerevisiae)
chain: MSSERACMLCGIVQTTNEFNRDGCPNCQGIFEEAGVSTMECTSPSFEGLVGMCKPTKSWVAKWLSVDHSIAGMYAIKVDGRLPAEVVELLPHYKPRDGSGSATIWGVRCRPGKEKELIRKLLKKKFNLDRAMGKKKLKILSIFQRDNYTGRIYIEAPKQSVIEKFCNGVPDIYISQKLLIPVQELPLLLKPN
- binding result [2]: binds
